The values that follow come from publication PMC3391209, “A Lon-Like Protease with No ATP-Powered Unfolding Activity” (PLoS ONE, 2012).

One assay concerns the target T1, EcLonA (Escherichia coli, UniProt P0A9M0).
T1 construct: gene lon; recombinant, expressed and purified as described previously
Put plainly: […]-NMR of phosphate release; colorimetric ATPase assay. Format: biochemical. The settings on record: 37 °C, 50 mM Tris-HCl pH 8.0, 10 mM MgCl2, 10 mM ATP (NMR); positive control.

The next assay deals with T2, MtaLonC (Meiothermus taiwanensis, UniProt C9DRU9).
T2 construct: gene lon_2; full-length, 719 residues, C-terminal His tag (pET21a), expressed in E. coli BL21(DE3); homohexamer, monomer 79 kDa
T2 sequence (C9DRU9 1-719): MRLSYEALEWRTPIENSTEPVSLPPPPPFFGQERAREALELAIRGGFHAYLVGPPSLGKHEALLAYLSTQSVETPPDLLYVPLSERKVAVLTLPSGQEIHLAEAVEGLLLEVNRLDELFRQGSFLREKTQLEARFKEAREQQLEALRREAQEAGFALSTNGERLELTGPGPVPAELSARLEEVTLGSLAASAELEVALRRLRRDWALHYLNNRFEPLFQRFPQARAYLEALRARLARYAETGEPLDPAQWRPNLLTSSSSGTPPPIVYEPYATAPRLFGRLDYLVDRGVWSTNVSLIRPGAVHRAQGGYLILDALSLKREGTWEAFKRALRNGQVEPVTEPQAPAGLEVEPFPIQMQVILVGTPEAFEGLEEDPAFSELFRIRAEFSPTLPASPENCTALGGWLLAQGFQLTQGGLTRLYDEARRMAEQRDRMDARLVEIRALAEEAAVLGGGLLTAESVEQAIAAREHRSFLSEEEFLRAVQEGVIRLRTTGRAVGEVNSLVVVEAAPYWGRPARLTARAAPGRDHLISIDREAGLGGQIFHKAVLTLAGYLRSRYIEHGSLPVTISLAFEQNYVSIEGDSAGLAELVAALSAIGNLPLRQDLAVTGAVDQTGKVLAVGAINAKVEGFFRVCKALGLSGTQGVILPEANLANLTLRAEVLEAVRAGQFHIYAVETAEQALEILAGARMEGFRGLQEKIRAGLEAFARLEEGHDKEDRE
Description: isothermal titration calorimetry, one-site fit. The assay is classed as binding. A general note: ITC needs no label: the signal is the heat of the interaction.

Assay [1] addresses Lon-like protease MtaLonC from Meiothermus taiwanensis WR-220 (Meiothermus taiwanensis WR-220). Description: negative-stain electron microscopy; about 50 µg/ml MtaLonC, 2% uranyl acetate, class averages; hexamer and void-volume fractions from Superose 6.
The target is the same in assay [2]. Put plainly: AUC; sedimentation equilibrium (4,000-6,000 r.p.m.) and sedimentation velocity (20,000 rpm), 20°C, 20 mM sodium citrate pH 5.5, 100 mM NaCl, 1 mM DTT, 7.8 µM protein.
For assay [3] the target is unchanged. Description: SEC; Superose 6; 1 mg/mL, pH 5-8; hexamer formation not dependent on Mg2+ or ATP; aggregates in the void volume when concentrated. On the technique in general: SEC sorts molecules by how far they enter the pores of the column.

For orientation: Kd means the free concentration of one partner at which half of the binding sites on the other are occupied at equilibrium, for simple one-to-one binding. Broadly, the stoichiometry N is the number of molecules, sites or subunits per partner or assembly.

T1 sequence (P0A9M0 2-784): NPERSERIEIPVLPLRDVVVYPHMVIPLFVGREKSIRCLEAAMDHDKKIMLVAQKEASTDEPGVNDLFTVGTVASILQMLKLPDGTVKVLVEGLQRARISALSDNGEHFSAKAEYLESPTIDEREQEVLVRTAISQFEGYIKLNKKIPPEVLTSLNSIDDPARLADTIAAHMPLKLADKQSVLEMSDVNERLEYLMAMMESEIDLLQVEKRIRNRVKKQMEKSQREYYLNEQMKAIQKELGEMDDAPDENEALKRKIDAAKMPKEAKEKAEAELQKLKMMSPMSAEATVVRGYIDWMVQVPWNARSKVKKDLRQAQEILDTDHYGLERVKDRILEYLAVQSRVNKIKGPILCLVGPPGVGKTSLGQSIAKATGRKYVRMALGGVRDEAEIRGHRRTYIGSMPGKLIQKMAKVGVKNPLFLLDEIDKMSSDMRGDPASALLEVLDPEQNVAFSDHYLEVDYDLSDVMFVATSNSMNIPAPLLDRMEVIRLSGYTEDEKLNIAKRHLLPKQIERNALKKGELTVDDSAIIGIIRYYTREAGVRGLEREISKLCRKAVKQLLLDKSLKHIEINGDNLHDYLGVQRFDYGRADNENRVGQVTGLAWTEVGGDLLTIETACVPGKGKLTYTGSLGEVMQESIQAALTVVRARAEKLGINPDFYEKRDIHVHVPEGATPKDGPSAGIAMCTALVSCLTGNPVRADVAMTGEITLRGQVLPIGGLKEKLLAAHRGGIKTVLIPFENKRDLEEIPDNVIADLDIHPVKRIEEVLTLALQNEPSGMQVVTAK

As for `Nc1ncnc2c1ncn2[C@@H]1O[C@H](COP(=O)(O)OP(=O)(O)OP(=O)(O)O)[C@@H](O)[C@H]1O` [ATP], the “31P-NMR of phosphate release; colorimetric ATPase assay” value on EcLonA was “incubation of an excess amount of ATP with EcLonA resulted in hydrolysis of ATP”.

On MtaLonC, `Nc1ncnc2c1ncn2[C@@H]1O[C@H](CO[P@](=O)(O)O[P@](=O)(O)O[P@@](=O)(O)S)[C@@H](O)[C@H]1O` [ATPγS] registered a Kd of 7.8 µM.

In the case of “Lon-like protease MtaLonC from Meiothermus taiwanensis WR-220 (enzyme)”, the stoichiometry N in assay [1], in assay [2] and in assay [3] was 6 throughout.
